Test [1] addresses endophilin SH3 (SH3G2_HUMAN), Q99962. As to the kind of experiment: SPOT array.
Test [2] deals with T1, amphyphisin SH3 (AMPH_HUMAN), P49418.
T1 chain: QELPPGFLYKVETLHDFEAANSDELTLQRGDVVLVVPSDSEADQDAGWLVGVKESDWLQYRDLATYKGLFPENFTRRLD
As to the kind of experiment: SPOT array.

For the molecule AAAVPRRPTQQGTV [Q96SQ5 2-15], the normalised SPOT signal, Boehringer light units (BLU); mean over the file's lines of this peptide in test [1] is 182; in test [2], 38.9.
For RHLAPNRPSKSRTD [Q9NTH0 93-106], in that order: 257 and 530.
As for RHLSPRRPVSPGKD [P31629 1496-1509], the normalised SPOT signal, Boehringer light units (BLU); mean over the file's lines of this peptide in test [1] is 332; in test [2], 60.1.
The like results for RGFLPYRPPRPAFF [Q96RT6 725-739] were, in that order, 13700 and 7280.
For RHQRLHRPGRPVPG [Q92657 54-67], the normalised SPOT signal, Boehringer light units (BLU); mean over the file's lines of this peptide was found to be 64.3 in test [1] and 11.8 in test [2].
For RILQFPRPVKLEDL [Q9Y2U5 55-68], in that order: 119 and 108.
For RGDDLRRPATMKGK [Q96T37 35-48], in that order: 144 and 30.
For RLAGPPRPPGHPRE [Q9BQU6 64-78], in that order: 2700 and 162.
With RLAALKRPDDVPLS [Q9UFC0 277-290], the figures for the normalised SPOT signal, Boehringer light units (BLU); mean over the file's lines of this peptide in test [1] and in test [2] were 49.2 and 38, respectively.
The like results for ATPLPRRPQPRQFF were, in that order, 19900 and 151.
The like results for RKMEIYRPHKATAE [Q92769 50-63] were, in that order, 179 and 16.3.
In the case of RFALFKRPKANGVK [Q9GZY5 40-53], the results for the normalised SPOT signal, Boehringer light units (BLU); mean over the file's lines of this peptide in test [1] and in test [2] were 13.5 and 19.2, respectively.
With RHASPARPPAARSQ [Q96JG1 528-542], the normalised SPOT signal, Boehringer light units (BLU); mean over the file's lines of this peptide in test [1] stood at 4680; in test [2], 434.
For REVSLKRPLGNSPG [P17036 132-145], in that order: 55.7 and 39.7.
The like results for RLGPPKRPPRKLGP [O15235 37-51] were, in that order, 10500 and 17100.
For RKPELERPIKVNLA [Q01650 421-434], in that order: 123 and 103.
RGIQFKRPHTVAPW [O43561 47-60]: the normalised SPOT signal, Boehringer light units (BLU); mean over the file's lines of this peptide in test [1] stood at 28.6; in test [2] it was 35.2.
The like results for RHWRPWRPDKTKKQ [Q9NWH6 590-603] were, in that order, 568 and 580.
The like results for RHPKPLKPPWHLSM [P41215 45-59] were, in that order, 3220 and 76.6.
For RGGPPPRPPPRQSL [Q9HCU4 2874-2888], in that order: 17200 and 17900.
Regarding RKWYPLRPKKINLD [Q9NRN8 254-267], the normalised SPOT signal, Boehringer light units (BLU); mean over the file's lines of this peptide in test [1] turned out to be 204; in test [2], 177.
For RGAQLRRPRHSHLT [Q13399 123-136], in that order: 53.2 and 25.3.
For RKPKPERPPSSSSS [Q9BW08 289-303], in that order: 7630 and 66.8.
The like results for RKFSLERPFRPSVT [Q9BXL7 634-647] were, in that order, 105 and 797.
As for RLFSIVRPRRLLYM [Q9UL53 87-100], the normalised SPOT signal, Boehringer light units (BLU); mean over the file's lines of this peptide in test [1] was found to be 702; in test [2], 1390.
The like results for RGAQLRRPRHSHPT [Q16360 129-142] were, in that order, 40.1 and 53.3.
Consider AVAIPNRPPDAVLT [P51659 480-494], for which the normalised SPOT signal, Boehringer light units (BLU); mean over the file's lines of this peptide in test [1] amounted to 79.1; in test [2], 49.8.
With ATPLPRRPQPRDLG, the normalised SPOT signal, Boehringer light units (BLU); mean over the file's lines of this peptide in test [1] was 6070; in test [2] it was 132.
Turning to RHLILKRPGFQEHE [Q96JB4 119-132], the normalised SPOT signal, Boehringer light units (BLU); mean over the file's lines of this peptide in test [1] was found to be 128; in test [2], 67.7.
Consider RHPRPRRPGGPALR [Q9H7T3 112-125], for which the normalised SPOT signal, Boehringer light units (BLU); mean over the file's lines of this peptide in test [1] came to 266; in test [2] it was 92.1.
Consider RGQEFRRPSTLSEL [P13674 520-533], for which the normalised SPOT signal, Boehringer light units (BLU); mean over the file's lines of this peptide in test [1] worked out at 158; in test [2], 38.7.
The like results for RKMEIYRPHKANAE [Q13547 49-62] were, in that order, 78.7 and 90.1.
The like results for RGGPPSKPPAPEDE [P48634 419-433] were, in that order, 33.5 and 38.6.
For RGERLPRPDKSPSE [P29597 1130-1143], in that order: 116 and 3.2.
Take AVAPPARPPRPPYP [AAH27972 515-529]: the normalised SPOT signal, Boehringer light units (BLU); mean over the file's lines of this peptide was 9580 in test [1] and 4180 in test [2].
For the molecule RELDLSRPSRSISL [Q12879 1300-1313], the values for the normalised SPOT signal, Boehringer light units (BLU); mean over the file's lines of this peptide in test [1] and in test [2] were 98.7 and 3150, respectively.
The like results for RIIAFSRPVKYEDV [Q99759 56-69] were, in that order, 79.6 and 113.
With RLHRLRRPHSSSDA [Q9NT23 226-239], the normalised SPOT signal, Boehringer light units (BLU); mean over the file's lines of this peptide came to 9.6 in test [1] and 12.5 in test [2].

The values are drawn from article PMC314469, “Protein Interaction Networks by Proteome Peptide Scanning” (PLoS Biology, 2004).
